# Reference: the supplement of paper PMC7125110
# ± gives the standard error. For some assays here: This sample holds only a part of the variants without activity.
# B1: glmS ribozyme (parent)
# chain: AUAAAAGCGCCAGAACUACAGAAAUGUAGUUGACGAGGAGGAGGUUUAUCGAAUUUUCGGCGGAUGCCUCCAAA
# Tests used:
# Settings in all cases: with glucosamine-6-phosphate
# [1] = variants of: B1; assay: kcat; higher = faster cleavage; RNA array
# Method in brief: (§1)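 On sequenced MiSeq chips, barcoded ribozyme variants were made in situ by E. coli RNA polymerase and followed at 37 °C through a hybridised Cy3 probe. Glucosamine-6-phosphate was flowed in at 40 μM to 10 mM in HEPES/KCl/Mg(OAc)2 buffer. Exponential fits to normalised per-tile medians gave kobs, and weighted Michaelis–Menten fits gave kcat and KM.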
# [2] = variants of: B1; assay: self-cleavage kobs at 40 uM GlcN6P; higher = faster cleavage; RNA array
# Method in brief: as §1
# [3] = variants of: B1; assay: self-cleavage kobs at 640 uM GlcN6P; higher = faster cleavage; RNA array
# Method in brief: as §1
# [4] = variants of: B1; assay: KM; higher = weaker cofactor use; RNA array
# Method in brief: as §1
# [5] = variants of: B1; assay: self-cleavage kobs at 160 uM GlcN6P; higher = faster cleavage; RNA array
# Method in brief: as §1
# [6] = variants of: B1; assay: self-cleavage kobs at 2500 uM GlcN6P; higher = faster cleavage; RNA array
# Method in brief: as §1
# [7] = variants of: B1; assay: self-cleavage kobs at 10000 uM GlcN6P; higher = faster cleavage; RNA array
# Method in brief: as §1
variant,measurement,setting,value
AUAAAAGCGCCAGAACUACAGAAAUGUAGAUGACGGGGAGGAGGUUUAUCGAAUUUUCGGCGGAUGCCUCCAAA [U30A A36G],kcat,[1],< 1e-05 s⁻¹
same,self-cleavage kobs at 40 uM GlcN6P,[2],< 1e-05 s⁻¹
same,self-cleavage kobs at 640 uM GlcN6P,[3],< 1e-05 s⁻¹
AUAAAAGCGCCAGAACUACAGAAAUGUAGAUUACGAGGAGGAGGUUUAUCGAAUUUUCGGCGGAUGCCUCCAAA [U30A G32U],kcat,[1],0.000735 ± 0.00018 s⁻¹
same,KM,[4],4830 ± 1700 µM
same,self-cleavage kobs at 160 uM GlcN6P,[5],3.89e-05 ± 1.7e-05 s⁻¹
same,self-cleavage kobs at 640 uM GlcN6P,[3],7.63e-05 ± 1.5e-05 s⁻¹
same,self-cleavage kobs at 2500 uM GlcN6P,[6],0.000275 ± 4.2e-05 s⁻¹
same,self-cleavage kobs at 10000 uM GlcN6P,[7],0.000475 ± 9.5e-05 s⁻¹
AUAAAAGCGCCAGAACUACAGAAAUGUAGAUGACGAGGAGGAGGUUUAUCGAACUUUCGGCGGAUGCCUCCAAA [U30A U54C],kcat,[1],0.00409 ± 0.0013 s⁻¹
same,KM,[4],1040 ± 490 µM
same,self-cleavage kobs at 40 uM GlcN6P,[2],0.000151 ± 2.1e-05 s⁻¹
same,self-cleavage kobs at 640 uM GlcN6P,[3],0.00174 ± 0.00027 s⁻¹
same,self-cleavage kobs at 2500 uM GlcN6P,[6],0.00215 ± 0.00045 s⁻¹
same,self-cleavage kobs at 10000 uM GlcN6P,[7],0.00543 ± 0.001 s⁻¹
AUAAAAGCGCCAGAACUACAGAAAUGUAGCUGACGAGGAGGAGGUUUAUCGAAUUUUCGGGGGAUGCCUCCAAA [U30C C61G],kcat,[1],1.42e-05 ± 1.3e-06 s⁻¹
AUAAAAGCGCCAGAACUACAGAAAUGUAGAUGACGAGGAGGAGGUUUAGCGAAUUUUCGGCGGAUGCCUUCAAA [U30A U49G C70U],kcat,[1],0.000102 ± 2.6e-05 s⁻¹
same,self-cleavage kobs at 10000 uM GlcN6P,[7],8.4e-05 ± 2e-05 s⁻¹
AUAAAAGCGCCAGAACUACAGAAAUGUAGCUGACGAGGAGGAGGUUUAUCGAGUUUUCGGCGGAUGCCUCCAAA [U30C A53G],kcat,[1],0.000411 ± 4.1e-05 s⁻¹
same,KM,[4],2120 ± 440 µM
same,self-cleavage kobs at 640 uM GlcN6P,[3],9.02e-05 ± 1.4e-05 s⁻¹
same,self-cleavage kobs at 2500 uM GlcN6P,[6],0.000252 ± 3.6e-05 s⁻¹
same,self-cleavage kobs at 10000 uM GlcN6P,[7],0.000328 ± 3.8e-05 s⁻¹
AUAAAAGCGCCAGAACUACAGAAAUGUAGAUGACGAGGAGGAGGUUUAUCGAAUAUUCGGCGGAUGCCUCCAAA [U30A U55A],kcat,[1],0.0085 ± 0.0022 s⁻¹
same,KM,[4],1850 ± 740 µM
same,self-cleavage kobs at 40 uM GlcN6P,[2],0.000212 ± 3.2e-05 s⁻¹
same,self-cleavage kobs at 160 uM GlcN6P,[5],0.000501 ± 0.00012 s⁻¹
same,self-cleavage kobs at 2500 uM GlcN6P,[6],0.00803 ± 0.0017 s⁻¹
same,self-cleavage kobs at 10000 uM GlcN6P,[7],0.00686 ± 0.00088 s⁻¹
AUAAAAGCGCCAGAACUACAGAAAUGUAUUUGACGAGGAGGAGGUUCAUCGAAUUUUCGGCGGAUGCCUCCAAA [G29U U47C],kcat,[1],0.000228 ± 1.3e-05 s⁻¹
same,KM,[4],1050 ± 180 µM
same,self-cleavage kobs at 160 uM GlcN6P,[5],4.21e-05 ± 1.6e-05 s⁻¹
same,self-cleavage kobs at 640 uM GlcN6P,[3],8.08e-05 ± 1.4e-05 s⁻¹
same,self-cleavage kobs at 2500 uM GlcN6P,[6],0.00017 ± 2.9e-05 s⁻¹
same,self-cleavage kobs at 10000 uM GlcN6P,[7],0.000206 ± 1.8e-05 s⁻¹
AUAAAAGCGCCAGAACUACAGAAAUGUAUUUGACGAGGAGGAGGUUUAUCGAAUUUUCGACGGAUGCCUCCAAA [G29U G60A],kcat,[1],< 1e-05 s⁻¹
same,self-cleavage kobs at 40 uM GlcN6P,[2],< 1e-05 s⁻¹
same,self-cleavage kobs at 160 uM GlcN6P,[5],< 1e-05 s⁻¹
same,self-cleavage kobs at 640 uM GlcN6P,[3],< 1e-05 s⁻¹
same,self-cleavage kobs at 10000 uM GlcN6P,[7],< 1e-05 s⁻¹
AUAAAAGCGCCAGAACUACAGAAAUGUAGCUGACGAGGUGGAGGUUUAUCGAAUUUUCGGCGGAUGCCUCCAAA [U30C A39U],kcat,[1],0.000228 ± 2.1e-05 s⁻¹
same,KM,[4],1730 ± 380 µM
same,self-cleavage kobs at 640 uM GlcN6P,[3],6.71e-05 ± 1e-05 s⁻¹
same,self-cleavage kobs at 2500 uM GlcN6P,[6],0.000123 ± 1.7e-05 s⁻¹
same,self-cleavage kobs at 10000 uM GlcN6P,[7],0.000203 ± 2.2e-05 s⁻¹
AUAAAAGCGCCAGAACUACAGAAAUGUAGCUGACGAGGAAGAGGUUUAUCGAAUUUUCGGCGGAUGCCUCCAAA [U30C G40A],kcat,[1],9.74e-05 ± 1.5e-05 s⁻¹
same,KM,[4],3260 ± 1400 µM
same,self-cleavage kobs at 40 uM GlcN6P,[2],< 1e-05 s⁻¹
same,self-cleavage kobs at 2500 uM GlcN6P,[6],4.56e-05 ± 1.3e-05 s⁻¹
same,self-cleavage kobs at 10000 uM GlcN6P,[7],7.27e-05 ± 1.2e-05 s⁻¹
AUAAAAGCGCCAGAACUACAGAAAUGUAGCUGACGAGGACGAGGUUUAUCGAAUUUUCGGCGGAUGCCUCCAAA [U30C G40C],kcat,[1],4.04e-05 ± 5.2e-06 s⁻¹
same,self-cleavage kobs at 2500 uM GlcN6P,[6],2.58e-05 ± 1.2e-05 s⁻¹
same,self-cleavage kobs at 10000 uM GlcN6P,[7],3.87e-05 ± 1.2e-05 s⁻¹
AUAAAAGCGCCAGAACUACAGAAAUGUAUUUGACGAGGAGGAGGUUUAUCGAAUUUUCGGCGGAUGCCGCCAAA [G29U U69G],kcat,[1],5.24e-05 ± 1.4e-05 s⁻¹
same,self-cleavage kobs at 160 uM GlcN6P,[5],5.79e-05 ± 1.4e-05 s⁻¹
same,self-cleavage kobs at 640 uM GlcN6P,[3],7.49e-05 ± 1.7e-05 s⁻¹
same,self-cleavage kobs at 2500 uM GlcN6P,[6],5.06e-05 ± 1.2e-05 s⁻¹
AUAAAAGCGCCAGAACUACAGAAAUGUAGACGACGAGGAGGAGGUUUAUCGAAUUUUCGGCGGAUGCCUCCAAA [U30A U31C],kcat,[1],0.00588 ± 0.00051 s⁻¹
same,KM,[4],4300 ± 500 µM
same,self-cleavage kobs at 40 uM GlcN6P,[2],5.91e-05 ± 1.1e-05 s⁻¹
same,self-cleavage kobs at 160 uM GlcN6P,[5],0.000203 ± 4.9e-05 s⁻¹
same,self-cleavage kobs at 640 uM GlcN6P,[3],0.000754 ± 0.00011 s⁻¹
same,self-cleavage kobs at 2500 uM GlcN6P,[6],0.00197 ± 0.00041 s⁻¹
same,self-cleavage kobs at 10000 uM GlcN6P,[7],0.00423 ± 0.0006 s⁻¹
AUAAAAGCGCCAGAACUACAGAAAUGUAGAUGACGAGGAGGAGGUUUAACGAAUUUUCGGCGGAUGCAUCGAAA [U30A U49A C68A C71G],kcat,[1],4.8e-05 ± 2.1e-05 s⁻¹
same,self-cleavage kobs at 640 uM GlcN6P,[3],7.12e-05 ± 2.8e-05 s⁻¹
AUAAAAGCGCCAGAACUACAGAAAUGUAGCUGACGACGAGGAGGUUUAUCGAAUUUUCGGCGGAUGCCUUCAAA [U30C G37C C70U],kcat,[1],1.63e-05 ± 2e-06 s⁻¹
AUAAAAGCGCCAGAACUACAGAAAUGUAUUUGACGAGGAGGAGGUUUAUCGAAUCUUCGGCGGAUGCCUCCAAA [G29U U55C],kcat,[1],0.00826 ± 0.0027 s⁻¹
same,KM,[4],3740 ± 1700 µM
same,self-cleavage kobs at 40 uM GlcN6P,[2],0.000123 ± 1.8e-05 s⁻¹
same,self-cleavage kobs at 160 uM GlcN6P,[5],0.000198 ± 7.2e-05 s⁻¹
same,self-cleavage kobs at 640 uM GlcN6P,[3],0.00112 ± 0.0002 s⁻¹
same,self-cleavage kobs at 2500 uM GlcN6P,[6],0.00427 ± 0.0009 s⁻¹
same,self-cleavage kobs at 10000 uM GlcN6P,[7],0.00588 ± 0.00079 s⁻¹
